The values that follow come from PMC314469, “Protein Interaction Networks by Proteome Peptide Scanning” (PLoS Biology, 2004).

Assay [1] addresses endophilin SH3 (SH3G2_HUMAN), Q99962. Kind of assay: SPOT array.
In assay [2] the target is T1, amphyphisin SH3 (AMPH_HUMAN), P49418.
T1 chain: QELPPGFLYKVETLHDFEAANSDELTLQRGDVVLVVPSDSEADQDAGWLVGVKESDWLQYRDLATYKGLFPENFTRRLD
The assay is described as follows: SPOT array.

B1: P35475 539-553 (peptide)
chain: VSARPEKPPGQVTR
For the molecule B1, the values for the normalised SPOT signal, Boehringer light units (BLU); mean over the file's lines of this peptide in assay [1] and in assay [2] were 98.9 and 42.3, respectively.

B2: Q9NPG6 312-325 (peptide)
chain: VESILKRPSSAITR
On to B2, for which the normalised SPOT signal, Boehringer light units (BLU); mean over the file's lines of this peptide in assay [1] turned out to be 31.6; in assay [2], 27.1.

B3: Q04671 237-250 (peptide)
chain: VASGPSRPGREEHI
As for B3, the normalised SPOT signal, Boehringer light units (BLU); mean over the file's lines of this peptide worked out at 430 in assay [1] and 2520 in assay [2].

B4: Q9Y3M8 456-469 (peptide)
chain: VGASLTRPNRRLRW
B4: the figures for the normalised SPOT signal, Boehringer light units (BLU); mean over the file's lines of this peptide in assay [1] and in assay [2] were 177 and 1960, respectively.

B5: Q96J01 313-326 (peptide)
chain: VAWHPKRPLLAFAS
B5: the normalised SPOT signal, Boehringer light units (BLU); mean over the file's lines of this peptide in assay [1] amounted to 267; in assay [2] it was 32.8.

B6: Q15515 17-30 (peptide)
chain: VSRLPKRPEPSPPL
B6: the normalised SPOT signal, Boehringer light units (BLU); mean over the file's lines of this peptide was found to be 3650 in assay [1] and 30 in assay [2].

B7: Q9UNP7 5-18 (peptide)
chain: TVNLFKRPLPKSKP
For the molecule B7, the normalised SPOT signal, Boehringer light units (BLU); mean over the file's lines of this peptide in assay [1] turned out to be 60.8; in assay [2] it was 25.3.

B8: Q9ULB8 127-140 (peptide)
chain: VFRVLRRPQEFVNR
For B8, the normalised SPOT signal, Boehringer light units (BLU); mean over the file's lines of this peptide amounted to 281 in assay [1] and 72.4 in assay [2].

B9: Q9C094 1911-1924 (peptide)
chain: TWQGLRRPPSVLGH
Take B9: the normalised SPOT signal, Boehringer light units (BLU); mean over the file's lines of this peptide came out at 346 in assay [1] and 64 in assay [2].

B10: Q15370 31-44 (peptide)
chain: VEGILKRPPDEQRL
Turning to B10, the normalised SPOT signal, Boehringer light units (BLU); mean over the file's lines of this peptide was 20.6 in assay [1] and 32.4 in assay [2].

B11: Q92502 483-496 (peptide)
chain: VGASLTRPSRKLRW
Regarding B11, the normalised SPOT signal, Boehringer light units (BLU); mean over the file's lines of this peptide came out at 269 in assay [1] and 7280 in assay [2].

B12: Q96P69 293-306 (peptide)
chain: TYSLLRRPFRQVLA
On to B12, for which the normalised SPOT signal, Boehringer light units (BLU); mean over the file's lines of this peptide in assay [1] stood at 715; in assay [2] it was 691.

B13: O00144 174-188 (peptide)
chain: VAPRPARPPGDLGP
Take B13: the normalised SPOT signal, Boehringer light units (BLU); mean over the file's lines of this peptide is 630 in assay [1] and 151 in assay [2].

B14: Q9NZM4 1290-1304 (peptide)
chain: VAEPPPRPPPPPPP
As to B14, the figures for the normalised SPOT signal, Boehringer light units (BLU); mean over the file's lines of this peptide in assay [1] and in assay [2] were 609 and 75.4, respectively.

B15: O95359 85-99 (peptide)
chain: VEGSPFRPPSHSFS
B15: the values for the normalised SPOT signal, Boehringer light units (BLU); mean over the file's lines of this peptide in assay [1] and in assay [2] were 79.6 and 51.3, respectively.

B16: Q9P1Z0 111-124 (peptide)
chain: TYTAPPRPPKKREY
Take B16: the normalised SPOT signal, Boehringer light units (BLU); mean over the file's lines of this peptide in assay [1] was 166; in assay [2] it was 189.

B17: Q99966 72-86 (peptide)
chain: TTTPPTKPPSFNLH
On to B17, for which the normalised SPOT signal, Boehringer light units (BLU); mean over the file's lines of this peptide stood at 647 in assay [1] and 54 in assay [2].

B18: Q96MR0 151-164 (peptide)
chain: VEPPPRRPMSQKSE
On to B18, for which the normalised SPOT signal, Boehringer light units (BLU); mean over the file's lines of this peptide in assay [1] was found to be 258; in assay [2], 247.

B19: P42229 764-777 (peptide)
chain: VEELLRRPMDSLDS
Take B19: the results for the normalised SPOT signal, Boehringer light units (BLU); mean over the file's lines of this peptide in assay [1] and in assay [2] were 46.2 and 30.5, respectively.

B20: O60721 37-50 (peptide)
chain: TYQHLRRPRGLSSL
As to B20, the results for the normalised SPOT signal, Boehringer light units (BLU); mean over the file's lines of this peptide in assay [1] and in assay [2] were 196 and 31.3, respectively.

B21: Q96RQ9 355-368 (peptide)
chain: VFLSFRRPFWREEH
Consider B21, for which the normalised SPOT signal, Boehringer light units (BLU); mean over the file's lines of this peptide amounted to 13.7 in assay [1] and 12.9 in assay [2].

B22: O95630 222-236 (peptide)
chain: TTVRPAKPPVVDRS
Take B22: the normalised SPOT signal, Boehringer light units (BLU); mean over the file's lines of this peptide in assay [1] was found to be 806; in assay [2], 34.9.

B23: Q9UQ13 68-81 (peptide)
chain: VDNTIKRPNPAPGT
Regarding B23, the normalised SPOT signal, Boehringer light units (BLU); mean over the file's lines of this peptide came out at 51.8 in assay [1] and 7.4 in assay [2].

B24: Q99767 658-671 (peptide)
chain: TTVLIKRPDLKYQL
For B24, the normalised SPOT signal, Boehringer light units (BLU); mean over the file's lines of this peptide was 74.4 in assay [1] and 30.1 in assay [2].

B25: P22004 21-35 (peptide)
chain: SGPPPLRPPLPAAA
Regarding B25, the normalised SPOT signal, Boehringer light units (BLU); mean over the file's lines of this peptide in assay [1] was 4710; in assay [2], 58.3.

B26: Q9UIW6 20-33 (peptide)
chain: VFTPLRRPGMLVPK
With B26, the normalised SPOT signal, Boehringer light units (BLU); mean over the file's lines of this peptide in assay [1] was 187; in assay [2], 98.

B27: Q9NPV1 31-44 (peptide)
chain: SGKAFRRPSDLFRH
Regarding B27, the normalised SPOT signal, Boehringer light units (BLU); mean over the file's lines of this peptide in assay [1] amounted to 26.9; in assay [2], 28.3.

B28: Q14184 22-35 (peptide)
chain: VSPGPIRPIKQISD
Consider B28, for which the normalised SPOT signal, Boehringer light units (BLU); mean over the file's lines of this peptide stood at 344 in assay [1] and 126 in assay [2].

B29: Q02410 746-759 (peptide)
chain: TTVLIRRPDLRYQL
As for B29, the figures for the normalised SPOT signal, Boehringer light units (BLU); mean over the file's lines of this peptide in assay [1] and in assay [2] were 16.2 and 29.4, respectively.

B30: Q9P1W0 38-51 (peptide)
chain: VARSPKRPAWGSRR
In the case of B30, the results for the normalised SPOT signal, Boehringer light units (BLU); mean over the file's lines of this peptide in assay [1] and in assay [2] were 1040 and 47.2, respectively.

B31: Q9H9Q6 68-81 (peptide)
chain: SGRHFRRPDPSREP
For B31, the normalised SPOT signal, Boehringer light units (BLU); mean over the file's lines of this peptide amounted to 15 in assay [1] and 23.3 in assay [2].

B32: Q14425 672-685 (peptide)
chain: VSRDITRPPKTVAT
As to B32, the values for the normalised SPOT signal, Boehringer light units (BLU); mean over the file's lines of this peptide in assay [1] and in assay [2] were 189 and 119, respectively.

B33: Q14183 21-34 (peptide)
chain: VSPGPIRPIRQISD
Regarding B33, the normalised SPOT signal, Boehringer light units (BLU); mean over the file's lines of this peptide in assay [1] came to 254; in assay [2] it was 1280.

B34: P36776 780-793 (peptide)
chain: VETSLRRPQDKDAK
For B34, the normalised SPOT signal, Boehringer light units (BLU); mean over the file's lines of this peptide in assay [1] amounted to 43.5; in assay [2] it was 26.8.

B35: Q96JQ0 2039-2052 (peptide)
chain: VATDLGRPARSATG
Consider B35, for which the values for the normalised SPOT signal, Boehringer light units (BLU); mean over the file's lines of this peptide in assay [1] and in assay [2] were 89.9 and 18.2, respectively.

B36: P25391 53-66 (peptide)
chain: VEHVPGRPVRNPQS
In the case of B36, the normalised SPOT signal, Boehringer light units (BLU); mean over the file's lines of this peptide in assay [1] turned out to be 49.9; in assay [2] it was 638.

B37: O15403 466-479 (peptide)
chain: VSLALVRPSKMGLS
Consider B37, for which the normalised SPOT signal, Boehringer light units (BLU); mean over the file's lines of this peptide amounted to 9.5 in assay [1] and 53.1 in assay [2].

B38: Q9UL18 20-33 (peptide)
chain: VFQAPRRPGIGTVG
Consider B38, for which the normalised SPOT signal, Boehringer light units (BLU); mean over the file's lines of this peptide in assay [1] is 728; in assay [2], 155.
